In article PMC7913596, “Tribbles Pseudokinase 2 (TRIB2) Regulates Expression of Binding Partners in Bovine Granulosa Cells” (International Journal of Molecular Sciences, 2021):
One block for each molecule: values may come before it.

Columns and labels:
[1] = target: pAcGFP1-53 (positive control bait) (UniProt P02340); test: co-IP; Matchmaker Co-IP system in co-transfected HEK 293 cells (pAcGFP1 bait, ProLabel prey); read-out by ProLabel enzyme complementation, luminescence (RLU); fold induction 60 min after substrate against the experimental control (pAcGFP1-TRIB2 and ProLabel-empty vector)
[2] = target: T1, Tribbles pseudokinase 2 (TRIB2), AcGFP1 fusion in HEK 293 cells (pAcGFP1-TRIB2) (bovine, UniProt Q5GLH2 1-343); test: as above; conditions: partners not purified
T1 construct: bovine TRIB2 (NM_178317.3); also called TRIB2 bait plasmid; source: HEK 293, transfected, in lysate
T1 sequence (looked up): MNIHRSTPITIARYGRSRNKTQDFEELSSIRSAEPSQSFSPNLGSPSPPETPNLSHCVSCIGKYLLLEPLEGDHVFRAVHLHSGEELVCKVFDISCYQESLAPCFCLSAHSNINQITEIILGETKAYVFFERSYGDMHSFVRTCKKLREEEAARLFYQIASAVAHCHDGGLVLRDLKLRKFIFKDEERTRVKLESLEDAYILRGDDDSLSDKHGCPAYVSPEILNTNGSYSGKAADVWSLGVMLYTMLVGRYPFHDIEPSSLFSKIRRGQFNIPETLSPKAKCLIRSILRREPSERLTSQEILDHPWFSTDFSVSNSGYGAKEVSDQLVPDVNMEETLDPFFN

Chain of pAcGFP1-53 (positive control bait) (P02340 whole entry, the tested form may be a part): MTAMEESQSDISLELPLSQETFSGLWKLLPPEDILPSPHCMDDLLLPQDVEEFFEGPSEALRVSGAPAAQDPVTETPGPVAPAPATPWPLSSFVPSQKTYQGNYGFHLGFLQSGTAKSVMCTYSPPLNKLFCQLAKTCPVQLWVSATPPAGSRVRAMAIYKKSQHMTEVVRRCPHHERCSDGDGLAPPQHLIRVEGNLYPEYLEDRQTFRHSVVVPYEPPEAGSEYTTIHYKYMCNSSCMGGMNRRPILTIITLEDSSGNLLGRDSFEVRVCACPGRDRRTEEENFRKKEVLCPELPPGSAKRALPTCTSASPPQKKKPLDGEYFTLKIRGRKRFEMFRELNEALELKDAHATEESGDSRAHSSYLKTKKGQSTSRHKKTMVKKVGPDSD

Molecule: ProLabel-T (positive control prey) (natural protein)
fold induction of ProLabel enzymatic activity against the experimental control [1]: 4.7 fold

fold induction of ProLabel enzymatic activity against the experimental control [2]: 9.2 fold
B1: inhibin subunit beta A (INHBA), ProLabel prey in HEK 293 cells (natural protein, Bos taurus, UniProt P07995 21-425, looked up)
chain: SPTPGSEGHSAAPDCPSCALATLPKDVPNSQPEMVEAVKKHILNMLHLKKRPDVTQPVPKAALLNAIRKLHVGKVGENGYVEIEDDIGRRAEMNELMEQTSEIITFAESGTARKTLHFEISKEGSDLSVVERAEIWLFLKVPKANRTRSKVTIRLFQQQKHLQGSLDAGEEAEEVGLKGEKSEMLISEKVVDARKSTWHIFPVSSCIQRLLDQGKSSLDIRIACEQCQETGASLVLLGKKKKKEEEGEGKKRDGEGGAGGDEEKEQSHRPFLMLQARQSEDHPHRRRRRGLECDGKVNICCKKQFFVSFKDIGWNDWIIAPSGYHANYCEGECPSHIAGTSGSSLSFHSTVINHYRMRGHSPFANLKSCCVPTKLRPMSMLYYDDGQNIIKKDIQNMIVEECGCS
notes: Bos taurus inhibin subunit beta A; Seen at around 50 kDa after co-IP and at 44 kDa in extracts not subjected to co-IP; The insert may be the cDNA fragment found in the two-hybrid screen; source: HEK 293, transfected, in lysate

fold induction of ProLabel enzymatic activity against the experimental control [2]: 2.3 fold
B2: inositol polyphosphate phosphatase-like 1 (INPPL1), ProLabel prey in HEK 293 cells (natural protein, Bos taurus, UniProt E1BBJ7 1-1264, looked up)
chain: MASACGAPGPGGAGPGAALGSPAPAWYHRDLSRAAAEELLARAGRDGSFLVRDSESVAGAFALCVLYQKHVHTYRILPDGEDFLAVQTSQGVPVRRFQTLGELISLYAQPNQGLVCALLLPVEREREPDPPDDRDASDGEDEKPPLPPRSGSTSISAPMGPSSPPAAPETPTTPAAESAPNGLSTVSHEYLKGSYGLDLEAVRGGASNLPHLTRTLATSCRRLHSEVDKVLSGLEILSKVFDQQSSPMVTRLLQQQNPPQTGEQELESLVLKLSVLKDFLSGIQKKALKALQDMSSTAPPAPLQPSTRKAKTIPVQAFEVKLDVTLGDLTKIGKSQKFTLSVDVEGGRLVLLRRQRDSQEDWTTFTHDRIRQLIKSQRVQNKLGVVFEKEKDRTQRKDFIFVSARKREAFCQLLQLMKNKHSKQDEPDMISIFIGTWNMGSVPPPKNVTSWFTSKGLGKTLDEVTVTIPHDIYVFGTQENSVGDREWLDLLRGGLKELTDLDYRPIAMQSLWNIKVAVLVKPEHENRISHVSTSSVKTGIANTLGNKGAVGVSFMFNGTSFGFVNCHLTSGNEKTARRNQNYLDILRLLTLGDRQLSAFDISLRFTHLFWFGDLNYRLDMDIQEILNYISRKEFEPLLRVDQLNLEREKHKVFLRFSEEEISFPPTYRYERGSRDTYAWHKQKPTGVRTNVPSWCDRILWKSYPETHIICNSYGCTDDIVTSDHSPVFGTFEVGVTSQFISKKGLSKTSDQAYIEFESIEAIVKTASRTKFFIEFYSTCLEEYKKSFENDAQSSDNINFLKVQWSSRQLPTLNPILADIEYLQDQHLLLTVKSMDGYESYGECVVALKSMIGSTAQQFLTFLSHRGEETGNIRGSMKVRVPTERLGTRERLYEWISIDKDEAGAKSKAPSVSRGSQDPRSGSRKPASTEASCPLSKLFEEPEKPPPTGRPPAPPRAAPREEPLTPRLKPEGAPELEGVVAPPPKNSFNNPAYYVLEGVPHQLLPPEPPSPARAPVPPATKNKVAITVPAPQLGRHRPPRAGEGSSSDEDSGGTLPPPDFPPPPLPDSAIFLPPGLDPLPGPVIRGRSGGEARGPPPPKAHPRPPLPPGPSPASTFLGDVASGDDRSCSVLQMAKTLSEVDYAPAGPGRAMLLPGPLELQPPRGLPSDYGRPLSFPPPRIRESIQEDLAEEAPCPQVGRAGGLGEAGMGAWLRAIGLERYEEGLVHNGWDDLEFLSDITEEDLEEAGVQDPAHKRLLLDTLQLSK
notes: Bos taurus inositol polyphosphate phosphatase-like 1; Bands at around 50 kDa and 100 kDa after co-IP, around 160 kDa in extracts not subjected to co-IP; The insert may be the cDNA fragment found in the two-hybrid screen; also called SHIP2; SH2-containing inositol 5'-phosphatase 2; source: HEK 293, transfected, in lysate
